Laboratory results reported in PMC4070425.

Key:
[1] = molecular target: LAI Env E647A (variant virus) (HIV-1 strain LAI)
[2] = molecular target: JR-CSF Env N637K (variant pseudovirus) (HIV-1 isolate JR-CSF)
[3] = molecular target: JR-CSF Env N637A (variant pseudovirus) (HIV-1 isolate JR-CSF)
[4] = molecular target: JR-CSF Env N611A (variant pseudovirus) (HIV-1 isolate JR-CSF)
[5] = molecular target: JR-FL Env N611D (variant pseudovirus) (HIV-1 isolate JR-FL)
[6] = molecular target: LAI Env E647G (variant virus) (HIV-1 strain LAI)
[7] = molecular target: JR-CSF Env wild type (pseudovirus) (HIV-1 isolate JR-CSF) (UniProt P20871)
[8] = molecular target: JR-FL Env N637K (variant pseudovirus) (HIV-1 isolate JR-FL)
[9] = molecular target: JR-CSF Env T639A (variant pseudovirus) (HIV-1 isolate JR-CSF)
[10] = molecular target: LAI Env N611A (variant virus) (HIV-1 strain LAI)
[11] = molecular target: JR-CSF Env E647G (variant pseudovirus) (HIV-1 isolate JR-CSF)
[12] = molecular target: LAI Env wild type (virus) (HIV-1 strain LAI) (UniProt P03377)
[13] = molecular target: JR-FL Env N637A (variant pseudovirus) (HIV-1 isolate JR-FL)
[14] = molecular target: JR-CSF Env E647A (variant pseudovirus) (HIV-1 isolate JR-CSF)
[15] = molecular target: LAI Env N637A (variant virus) (HIV-1 strain LAI)
[16] = molecular target: JR-FL Env E647G (variant pseudovirus) (HIV-1 isolate JR-FL)
[17] = molecular target: LAI Env N637K (variant virus) (HIV-1 strain LAI)
[18] = molecular target: JR-FL Env N611A (variant pseudovirus) (HIV-1 isolate JR-FL)
[19] = molecular target: JR-CSF Env S613A (variant pseudovirus) (HIV-1 isolate JR-CSF)
[20] = molecular target: LAI Env N611D (variant virus) (HIV-1 strain LAI)
[21] = molecular target: JR-FL Env E647A (variant pseudovirus) (HIV-1 isolate JR-FL)
[22] = molecular target: JR-CSF Env N611D (variant pseudovirus) (HIV-1 isolate JR-CSF)
[23] = molecular target: LAI Env A501T (variant virus) (HIV-1 strain LAI)

Sequence of UniProt P20871 (P20871 32-848): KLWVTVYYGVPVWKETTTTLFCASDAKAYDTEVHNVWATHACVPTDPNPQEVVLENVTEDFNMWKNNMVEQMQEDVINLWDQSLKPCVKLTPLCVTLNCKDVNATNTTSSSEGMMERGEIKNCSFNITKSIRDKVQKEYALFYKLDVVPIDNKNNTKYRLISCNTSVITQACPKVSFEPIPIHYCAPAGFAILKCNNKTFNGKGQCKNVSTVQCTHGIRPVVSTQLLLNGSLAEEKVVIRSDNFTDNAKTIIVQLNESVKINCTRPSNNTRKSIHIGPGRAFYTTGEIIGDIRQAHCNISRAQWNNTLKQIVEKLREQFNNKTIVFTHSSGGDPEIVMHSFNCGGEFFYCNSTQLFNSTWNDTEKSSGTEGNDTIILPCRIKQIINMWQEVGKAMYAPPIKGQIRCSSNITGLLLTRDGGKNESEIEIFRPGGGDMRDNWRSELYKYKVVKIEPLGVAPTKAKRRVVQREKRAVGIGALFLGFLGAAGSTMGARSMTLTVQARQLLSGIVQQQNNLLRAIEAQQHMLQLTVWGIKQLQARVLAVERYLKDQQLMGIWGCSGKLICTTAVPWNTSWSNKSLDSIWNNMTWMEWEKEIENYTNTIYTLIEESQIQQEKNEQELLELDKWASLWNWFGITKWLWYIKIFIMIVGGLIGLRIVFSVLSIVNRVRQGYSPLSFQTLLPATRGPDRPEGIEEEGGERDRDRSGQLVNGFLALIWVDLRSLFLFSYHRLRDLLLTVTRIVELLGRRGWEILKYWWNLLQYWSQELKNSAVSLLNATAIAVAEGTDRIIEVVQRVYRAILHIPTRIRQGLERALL

PGT151 (antibody)
%Maximum neutralization (LAI) [1]: 96% | %Maximum neutralization (JR-CSF) [2]: 20% | %Maximum neutralization (JR-CSF) [3]: 50% | %Maximum neutralization (JR-CSF) [4]: 44% | %Maximum neutralization (JR-FL) [5]: 8% | %Maximum neutralization (LAI) [6]: 95% | %Maximum neutralization (JR-CSF) [7]: 93% | %Maximum neutralization (JR-FL) [8]: 33% | %Maximum neutralization (JR-CSF) [9]: 52% | %Maximum neutralization (LAI) [10]: 81% | %Maximum neutralization (JR-CSF) [11]: 7% | %Maximum neutralization (LAI) [12]: 100% | %Maximum neutralization (JR-FL) [13]: 65% | %Maximum neutralization (JR-CSF) [14]: 33% | %Maximum neutralization (LAI) [15]: 70% | %Maximum neutralization (JR-FL) [16]: 94% | %Maximum neutralization (LAI) [17]: 37% | %Maximum neutralization (JR-FL) [18]: 31% | %Maximum neutralization (JR-CSF) [19]: 41% | %Maximum neutralization (LAI) [20]: 45% | %Maximum neutralization (JR-FL) [21]: 72% | %Maximum neutralization (JR-CSF) [22]: 0% | %Maximum neutralization (LAI) [23]: 75%
